The values that follow come from paper doi:10.1101/2025.08.03.668247, “The structure of Egalitarian in complex with the K10 mRNA localization signal reveals a modular binding surface required for function”.

Details in all cases: protein: recombinant; tags: N-terminal GST; label: 5'-6-FAM; hairpin with two bulges
One data set has as its target T1, K754A (Drosophila melanogaster, UniProt Q9W1K4 512-819, K754A).
T1 sequence: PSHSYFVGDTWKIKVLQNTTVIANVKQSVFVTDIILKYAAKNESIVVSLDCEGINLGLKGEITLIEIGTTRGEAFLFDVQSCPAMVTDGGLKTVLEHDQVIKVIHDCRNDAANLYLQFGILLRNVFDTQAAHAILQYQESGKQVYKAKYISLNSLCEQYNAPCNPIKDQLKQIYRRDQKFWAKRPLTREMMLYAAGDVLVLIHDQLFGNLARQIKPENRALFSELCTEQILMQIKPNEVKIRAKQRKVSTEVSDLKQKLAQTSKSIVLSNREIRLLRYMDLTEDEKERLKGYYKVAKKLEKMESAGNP
Briefly: fluorescence anisotropy; FA: 20 mM HEPES-NaOH pH 7.5, 100 mM NaCl, 10% glycerol, 20 C, 10 nM FAM-RNA; competition: 150 nM Egl512-819 + 10 nM FAM-K10 TLS, same buffer. (In general: Fluorescence polarisation rises when a labelled molecule tumbles more slowly, as on binding a larger partner.)

In a further data set the target is T2, K678E (Drosophila melanogaster, UniProt Q9W1K4 512-819, K678E).
T2 sequence: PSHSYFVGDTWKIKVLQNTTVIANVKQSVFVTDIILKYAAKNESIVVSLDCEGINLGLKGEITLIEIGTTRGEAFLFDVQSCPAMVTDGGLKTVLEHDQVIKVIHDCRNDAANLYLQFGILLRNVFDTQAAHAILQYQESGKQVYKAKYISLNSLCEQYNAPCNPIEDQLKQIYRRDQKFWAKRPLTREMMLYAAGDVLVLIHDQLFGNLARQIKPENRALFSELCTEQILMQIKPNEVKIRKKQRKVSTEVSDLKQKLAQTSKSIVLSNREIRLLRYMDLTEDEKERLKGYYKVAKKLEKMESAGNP
The data set is described as above.

In another data set the target is T3, R788A (Drosophila melanogaster, UniProt Q9W1K4 512-819, R788A).
T3 sequence: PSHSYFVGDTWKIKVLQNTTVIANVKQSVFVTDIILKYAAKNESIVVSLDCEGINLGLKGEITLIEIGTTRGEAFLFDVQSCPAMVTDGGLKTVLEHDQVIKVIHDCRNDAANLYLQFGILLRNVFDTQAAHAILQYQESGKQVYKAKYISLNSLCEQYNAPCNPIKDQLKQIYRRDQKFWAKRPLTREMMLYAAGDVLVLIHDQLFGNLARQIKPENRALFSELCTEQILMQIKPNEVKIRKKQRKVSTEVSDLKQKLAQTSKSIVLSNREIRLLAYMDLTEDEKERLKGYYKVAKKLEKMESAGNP
The description is as above.

The target of the next data set is T4, K755E (Drosophila melanogaster, UniProt Q9W1K4 512-819, K755E).
T4 sequence: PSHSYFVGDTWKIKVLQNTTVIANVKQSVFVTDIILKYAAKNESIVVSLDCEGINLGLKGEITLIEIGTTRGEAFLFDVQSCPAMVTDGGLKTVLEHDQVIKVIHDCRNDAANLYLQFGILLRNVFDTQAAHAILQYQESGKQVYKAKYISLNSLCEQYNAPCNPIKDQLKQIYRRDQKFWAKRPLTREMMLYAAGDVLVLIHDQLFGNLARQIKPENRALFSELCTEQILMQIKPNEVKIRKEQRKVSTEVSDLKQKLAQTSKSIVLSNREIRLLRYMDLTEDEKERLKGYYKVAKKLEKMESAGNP
Described as above.

For the next data set, the target named is T5, R753A/K754A/K755A (Drosophila melanogaster, UniProt Q9W1K4 512-819, R753A;K754A;K755A).
T5 sequence: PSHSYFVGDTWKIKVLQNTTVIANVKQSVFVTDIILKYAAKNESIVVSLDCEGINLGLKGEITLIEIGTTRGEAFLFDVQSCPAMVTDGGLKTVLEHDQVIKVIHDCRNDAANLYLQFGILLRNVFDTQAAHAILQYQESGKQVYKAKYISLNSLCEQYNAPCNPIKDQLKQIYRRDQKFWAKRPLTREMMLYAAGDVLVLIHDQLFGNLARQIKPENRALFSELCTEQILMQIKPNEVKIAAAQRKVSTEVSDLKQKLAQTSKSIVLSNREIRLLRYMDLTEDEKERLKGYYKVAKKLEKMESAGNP
The data set is described as above.

Another data set has as its target T6, K659E/K754E/R788E (Drosophila melanogaster, UniProt Q9W1K4 512-819, K659E;K754E;R788E).
T6 sequence: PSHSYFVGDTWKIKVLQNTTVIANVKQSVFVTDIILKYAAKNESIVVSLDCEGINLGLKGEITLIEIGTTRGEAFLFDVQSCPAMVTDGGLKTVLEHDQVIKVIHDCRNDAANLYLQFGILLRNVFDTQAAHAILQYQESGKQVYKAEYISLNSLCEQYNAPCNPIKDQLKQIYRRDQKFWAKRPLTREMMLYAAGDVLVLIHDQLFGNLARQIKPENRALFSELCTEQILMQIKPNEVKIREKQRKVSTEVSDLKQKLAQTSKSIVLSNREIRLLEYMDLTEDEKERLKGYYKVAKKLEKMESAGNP
Put plainly: fluorescence anisotropy; binding not detected; FA: 20 mM HEPES-NaOH pH 7.5, 100 mM NaCl, 10% glycerol, 20 C, 10 nM FAM-RNA; competition: 150 nM Egl512-819 + 10 nM FAM-K10 TLS, same buffer.

Broadly, the Kd is the constant that tells how readily two partners part at equilibrium. With CUUGAUUGUAUUUUUAAAUUAAUUCUUAAAAACUACAAAUUAAG (structured_RNA) [K10 TLS (FAM)], the Kd with K754A was 212 ± 8 nM; with K678E, 195 ± 9 nM; in the data set with R788A, 207 ± 43 nM; with K755E, 133 ± 2 nM; with R753A/K754A/K755A it was 222 ± 19 nM. Also, in the data set with K659E/K754E/R788E, the binding result is given as “no binding”.
